In publication doi:10.1101/2022.08.30.505904:

Columns and labels:
[1] = target: CBKP1 complex (PaCgi121/PaBud32/PaKae1/PaPcc1) (Pyrococcus abyssi) (UniProt Q9UXT7); assay: SEC-SAXS
[2] = target: CBKP2 complex (PaCgi121/PaBud32/PaKae1/PaPcc2) (Pyrococcus abyssi | Pyrococcus abyssi GE5) (UniProt Q9UXT7); assay: SEC-SAXS
[3] = target: PaPcc2 with C-terminal hexa-histidine tag (Pyrococcus abyssi GE5); assay: SEC

“CBKP1 complex (PaCgi121/PaBud32/PaKae1/PaPcc1) (from UniProt Q9UXT7 1-324)” showed a stoichiometry N [1] of 2.

“CBKP2 complex (PaCgi121/PaBud32/PaKae1/PaPcc2) (from UniProt Q9UXT7 1-324)” showed a stoichiometry N [2] of 2.

For “PaPcc2 with C-terminal hexa-histidine tag (natural protein)”, the stoichiometry N [3] was 2.
